Data taken from patent publication US20040005550A1, “Methods and compositions useful for targeting activated vitronectin receptor alphavbeta3” (The Scripps Research Institute, priority 1998, published 2004).

What was measured:
[1] = molecular target: T1, αvβ3 expressed in CHO cells (Homo sapiens, UniProt P05106+P06756); assay: Flow cytometry ligand binding to αvβ3-CHO cells; details: for Bmax: arbitrary fluorescence units
T1 construct: cDNAs encoding full-length human αv and β3 were subcloned into pcDNA3 and pCDM8; expressed in transfected cells
Method: Binding of aPB, WOW-1 Fab and FITC-fibrinogen to cells was assessed by flow cytometry. Typically, cells were cultured overnight in low serum medium (e.g., 0.5% fetal bovine serum), resuspended in incubation buffer at 1-1.5×10^7 cells/ml, and 4-6×10^5 cells were incubated with one of these ligands for 30 min at room temperature in a final volume of 50 μl. […] In some experiments, ligand binding and αvβ3 expression were measured simultaneously by incubation of cells with ligands in the presence of biotin-SSA6 (7 μg/ml), a non-function-blocking anti-β3 monoclonal antibody (Abrams, C., Deng, J., Steiner, B., and Shattil, S. J. (1994) J. Biol. Chem. 269, 18781-18788). After 30 min at room temperature, cells were washed and incubated with phycoerythrin-streptavidin (1:25 final dilution; Molecular Probes) for 20 min on ice. In the case of WOW-1 Fab, an Alexa-conjugated anti-(His)6 monoclonal antibody (Accurate Chemical and Scientific Corp., Westbury, N.Y.) was added at this stage (50 μg/ml). Cells were washed and resuspended in 0.5 ml incubation buffer containing 2 μg/ml propidium iodide (Sigma, St. Louis, Mo.). Ligand binding (FL1 channel) was analyzed immediately on the gated subset of live cells (propidium iodide-negative, FL3) that was strongly positive for αvβ3 expression (FL2). Binding isotherms were subjected to non-linear, least squares regression analysis using an equation for one-site binding (Prism 2.0 software; GraphPad Software, San Diego, Calif.). Two-tailed P values for paired samples were obtained by Student's t test.
In order to document and study the significance of affinity modulation of αvβ3, a monovalent reporter ligand was developed analogous to the activation-dependent anti-αIIbβ3 antibody, PAC1 Fab. Preliminary binding studies were conducted with the new antibody, designated WOW-1 Fab, using purified integrins in the presence of 50 μM MnCl2, which activates integrins by a direct effect on the extracellular domain (Bazzoni, G., and Hemler, M. E. (1998) Trends Biochem. Sci. 23, 30-34). […] To determine if WOW-1 Fab reacted preferentially with activated αvβ3 in cells, Fab binding was compared with that of multivalent penton base using CHO cells stably-transfected with human αvβ3 (αvβ3-CHO cells).

αvβ3-CHO cells = assay: Cell adhesion assay on immobilized penton base; format: cell-based
Method: Immulon-2 microtiter wells (Dynex Laboratories, Chantilly, Va.) were coated with unlabeled penton base (1-100 ng/well) overnight at 4° C., followed by blocking with 20 mg/ml BSA. CHO cells stably expressing αvβ3 were labeled with BCECF-AM (Molecular Probes, Eugene, Oreg.), and cell adhesion to the immobilized penton base was quantitated by cytofluorimetry at 485/530 nm (Hato, T., Pampori, N., and Shattil, S. J. (1998) J. Cell Biol. 141(7), 1685-1695).
In order to determine whether changes in receptor affinity affect the adhesive function of αvβ3, the adhesion of αvβ3-CHO cells to immobilized penton base was quantitated. Adhesion was dependent on the coating concentration of penton base and was half-maximal at 30-40 ng/well (FIG. 7). Activation of αvβ3 by AP5 led to a 7-fold leftward shift in the dose-response curve such that half-maximal adhesion now occurred at approximately 5 ng of penton base/well. Treatment of the cells with 1 mM MnCl2 caused an even further shift in the dose-response curve, either because it induced a more profound effect on αvβ3 or it activated additional αv integrins (FIG. 7). […] Thus, affinity modulation of αvβ3 promotes both cell adhesion and post-ligand binding responses, such as cell spreading.

[2] = tested on: resting or thrombin-stimulated human platelets; assay: Flow cytometry ligand binding to platelets

T1 sequence (P06756 31-889 limits assumed): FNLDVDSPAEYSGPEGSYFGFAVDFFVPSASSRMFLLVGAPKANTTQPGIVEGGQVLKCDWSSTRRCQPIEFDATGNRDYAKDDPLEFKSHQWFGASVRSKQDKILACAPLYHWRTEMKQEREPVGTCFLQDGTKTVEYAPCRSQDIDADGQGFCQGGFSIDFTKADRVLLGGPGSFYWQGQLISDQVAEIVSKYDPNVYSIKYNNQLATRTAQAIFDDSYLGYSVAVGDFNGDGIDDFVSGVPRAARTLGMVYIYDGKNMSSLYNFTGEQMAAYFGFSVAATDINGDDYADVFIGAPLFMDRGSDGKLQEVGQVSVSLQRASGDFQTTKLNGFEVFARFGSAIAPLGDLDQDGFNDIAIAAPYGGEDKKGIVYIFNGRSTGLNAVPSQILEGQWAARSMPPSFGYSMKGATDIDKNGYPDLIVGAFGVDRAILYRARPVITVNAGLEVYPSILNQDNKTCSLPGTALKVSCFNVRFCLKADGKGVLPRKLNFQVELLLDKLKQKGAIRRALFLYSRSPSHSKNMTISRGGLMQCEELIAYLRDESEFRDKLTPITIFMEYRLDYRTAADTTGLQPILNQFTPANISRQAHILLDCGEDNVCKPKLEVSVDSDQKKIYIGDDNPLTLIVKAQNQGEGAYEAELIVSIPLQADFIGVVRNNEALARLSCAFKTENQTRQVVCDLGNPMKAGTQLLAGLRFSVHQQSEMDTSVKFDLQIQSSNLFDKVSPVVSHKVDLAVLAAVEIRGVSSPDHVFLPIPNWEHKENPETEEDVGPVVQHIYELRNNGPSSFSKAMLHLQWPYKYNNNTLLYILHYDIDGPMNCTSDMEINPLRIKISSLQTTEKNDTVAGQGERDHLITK
T1 sequence (P06756 891-1048 partner limits assumed): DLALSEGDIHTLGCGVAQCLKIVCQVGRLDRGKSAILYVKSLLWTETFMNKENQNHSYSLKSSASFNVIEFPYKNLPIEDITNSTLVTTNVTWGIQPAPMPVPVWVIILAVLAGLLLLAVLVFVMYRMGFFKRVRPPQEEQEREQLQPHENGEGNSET
T1 sequence (P05106 27-788): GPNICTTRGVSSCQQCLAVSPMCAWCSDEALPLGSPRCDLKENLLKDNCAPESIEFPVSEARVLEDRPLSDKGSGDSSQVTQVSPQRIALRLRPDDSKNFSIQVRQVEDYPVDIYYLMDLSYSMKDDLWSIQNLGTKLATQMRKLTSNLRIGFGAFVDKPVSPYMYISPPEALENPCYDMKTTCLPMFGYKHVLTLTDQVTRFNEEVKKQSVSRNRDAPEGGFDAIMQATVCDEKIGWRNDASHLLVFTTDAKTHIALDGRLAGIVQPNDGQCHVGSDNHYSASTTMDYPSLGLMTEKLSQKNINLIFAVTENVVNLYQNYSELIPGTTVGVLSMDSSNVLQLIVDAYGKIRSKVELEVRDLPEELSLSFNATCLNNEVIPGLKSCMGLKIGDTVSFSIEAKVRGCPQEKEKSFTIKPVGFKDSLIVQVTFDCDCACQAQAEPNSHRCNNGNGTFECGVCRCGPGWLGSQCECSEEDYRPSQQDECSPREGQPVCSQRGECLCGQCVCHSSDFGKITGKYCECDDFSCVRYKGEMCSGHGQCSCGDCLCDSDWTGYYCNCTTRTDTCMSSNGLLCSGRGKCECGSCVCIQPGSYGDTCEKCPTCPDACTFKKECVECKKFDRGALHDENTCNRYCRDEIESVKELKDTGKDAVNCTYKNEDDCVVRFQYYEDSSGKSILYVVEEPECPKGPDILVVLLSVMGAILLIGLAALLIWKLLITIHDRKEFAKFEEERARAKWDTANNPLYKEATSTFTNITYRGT

Row | Substance | Bmax ([1]; Activating antibody AP5) [units] | Bmax ([1]; No Treatment) [units] | affinity/avidity of αvβ3 for ligand, fold lower than that for aPB ([1]; unstimulated αvβ3-CHO cells) | coating concentration at half-maximal adhesion (αvβ3-CHO cells; no additive, 90 min at 37° C.) | coating amount at half-maximal adhesion (αvβ3-CHO cells; αvβ3 activated by AP5) | aPB binding on a per receptor basis (mfi of aPB binding divided by mfi of SSA6 binding) ([1]; AP5-treated αvβ3-CHO cells, 75 nM aPB) | binding to platelets [2]
1 | Fibrinogen: Purified human fibrinogen labeled with FITC | 77 ± 6 | 126 ± 74 | approximately 15 fold | – | – | – | –
2 | Penton Base: Recombinant multivalent penton base coat protein from adenovirus type 2, baculovirus-expressed | 69 ± 5 | 80 ± 4 | – | 30-40 ng/well | approximately 5 ng of penton base/well | – | –
3 | aPB: Penton base conjugated to Alexa-488 | – | – | – | – | – | 0.034±0.002 | neither aPB nor WOW-1 Fab bound detectably
